Results reported in US20230075633A1.

What was measured:
human CD3 (human) [1] = molecular target: human CD3 (human) (UniProt P07766); test: flow cytometry on Jurkat cells
human CEA (human) = human CEA (human) (UniProt P06731); test: cell-based or functional assay
human CD3 (human) [2] = molecular target: human CD3 (human) (UniProt P07766); test: flow cytometry on human PBMC (ND 12)

Chain of human CEA (human) (P06731 35-702, form in doubt): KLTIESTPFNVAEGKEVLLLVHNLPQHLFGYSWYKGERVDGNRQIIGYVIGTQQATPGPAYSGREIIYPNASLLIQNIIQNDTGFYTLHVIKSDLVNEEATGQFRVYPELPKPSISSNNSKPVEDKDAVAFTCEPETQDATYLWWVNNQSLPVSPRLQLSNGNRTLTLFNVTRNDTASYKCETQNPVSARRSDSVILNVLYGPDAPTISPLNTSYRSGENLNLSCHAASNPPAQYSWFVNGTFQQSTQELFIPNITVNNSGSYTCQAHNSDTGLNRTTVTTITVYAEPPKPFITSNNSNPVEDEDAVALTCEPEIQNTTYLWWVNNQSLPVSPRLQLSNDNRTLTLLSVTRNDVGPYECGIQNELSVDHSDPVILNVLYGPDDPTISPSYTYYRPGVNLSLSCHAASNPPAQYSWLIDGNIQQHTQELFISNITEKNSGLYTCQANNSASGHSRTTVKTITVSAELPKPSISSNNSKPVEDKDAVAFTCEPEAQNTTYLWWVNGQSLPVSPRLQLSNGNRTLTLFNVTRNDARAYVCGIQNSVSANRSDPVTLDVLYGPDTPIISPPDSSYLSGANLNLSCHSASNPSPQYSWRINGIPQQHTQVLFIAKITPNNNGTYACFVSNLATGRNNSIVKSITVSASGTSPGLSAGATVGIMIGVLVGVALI
Chain of human CD3 (human) (P07766 23-207): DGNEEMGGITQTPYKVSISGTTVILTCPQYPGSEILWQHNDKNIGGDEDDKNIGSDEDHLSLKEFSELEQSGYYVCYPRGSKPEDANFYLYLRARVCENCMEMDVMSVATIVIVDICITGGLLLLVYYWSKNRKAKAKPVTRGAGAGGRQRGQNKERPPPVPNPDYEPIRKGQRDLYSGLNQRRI

EC50 (human CD3 (human) [1]): 207 pM
cytolysis of LS174T cells by PBMC: EC50 (human CEA (human)): 5 pM
cytolysis of MKN-45 cells by PBMC, E/T 20:1, 48 h: EC50 against that of CEA/CD3OPT1a3b2b1 BsAb (human CEA (human)): 50 fold
cytolysis of MKN-45 cells by PBMC: EC50 (human CEA (human)): 1 pM
EC50 (human CD3 (human) [2]): 340 pM
Substance: Roche CEA-TCB (bispecific antibody)
